{"source": "patent US20260109758A1", "about": "(BIOSION, published 2026)", "binders": {"B1": {"name": "BSI-502-004 (bispecific antibody, human IgG1, kappa)", "heavy": "DIQMTQSPSSLSASVGDRVTITCRTSENIYSYLAWYQQKPGKAPKFLVYNAKTLAEGVPSRFSGSGSGTDFTLTISSLQPEDFATYYCQHYYGPPTWTFGQGTKVEIKGGGGSGGGGSGGGGSGGGGSEVQLVESGGGLVQPGGSLRLSCAASGFTFSTYGMSWVRQAPGKGLVWVATINSNGGSTSYPDSVKGRFTISRDNAKNTLYLQMNSLRAEDTAVYYCARFFRFRNAMDYWGQGTLVTVSSGGGGSGGGGSQVQLVQSGAEVKKPGASVKVSCKASGYTFTTYWMHWVRQAPGQGLEWMGVIDPSDSDTTYNQKFKGRVTMTRDTSTSTVYMELSSLRSEDTAVYYCTRSLDGYYDYWGQGTLVTVSSASTKGPSVFPLAPSSKSTSGGTAALGCLVKDYFPEPVTVSWNSGALTSGVHTFPAVLQSSGLYSLSSVVTVPSSSLGTQTYICNVNHKPSNTKVDKKVEPKSCDKTHTCPPCPAPEAQGGPSVFLFPPKPKDTLYITREPEVTCVVVDVSHEDPEVKFNWYVDGVEVHNAKTKPREEQYNSTYRVVSVLTVLHQDWLNGKEYKCQVSNKALPAPIEKTISKAKGQPREPQVYTLPPSRDELTKNQVSLTCLVKGFYPSDIAVEWESNGQPENNYKTTPPVLDSDGSFFLYSKLTVDKSRWQQGNVFSCSVMHEALHNHYTQKSLSLSPG", "light": "DIQMTQSPSSLSASVGDRVTITCRPTENIYSYLAWYQQKPGKAPKLLIYFARTLAEGVPSRFSGSGSGTDFTLTISSLQPEDFATYYCQHHYGTPWTFGGGTKVEIKRTVAAPSVFIFPPSDEQLKSGTASVVCLLNNFYPREAKVQWKVDNALQSGNSQESVTEQDSKDSTYSLSSTLTLSKADYEKHKVYACEVTHQGLSSPVTKSFNRGEC", "notes": "hu1C5F12E9-V8 IgG with an anti-IL4R scFv (VL-VH) at the N-terminus of the heavy chain; AQQ and YTE already stand in the entry"}}, "key": {"[1]": {"target": "T1, recombinant human TSLP-his (human, UniProt Q969D9 29-159, biotin-labeled in the ELISAs)", "T1 construct": "In-house made; not shown: His tag at the C-terminus", "assay": "SPR Biacore; TSLP-his amine-coupled to CM5 chip, antibody as analyte; 1:1 Langmuir fit", "procedure": "Un-reacted moieties on the biosensor surface were blocked with ethanolamine. Then, serially diluted purified bispecific antibodies and the controls (2-fold serial dilution in HBS-EP⁺ buffer starting at 100 nM) were respectively flowed onto the chip at a flow rate of 30 μL/min. The antigen-antibody association kinetics was followed for 4 minutes and the dissociation kinetics was followed for 13 minutes."}, "[2]": {"target": "T2, recombinant human IL4Rα-his (human, UniProt P24394 26-231, limits assumed, biotin-labeled in the capture ELISA)", "T2 construct": "In-house made; not shown: His tag at the C-terminus", "assay": "SPR Biacore T200; antibody captured on anti-human IgG CM5 chip, IL4Rα-his as analyte; 1:1 Langmuir fit", "summary_of_the_method": "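Antibodies captured on anti-human IgG CM5 chip (bispecifics at 66.67 nM, controls 10 μg/mL), then serially diluted recombinant human IL4Rα-his (C-terminal His tag) in HBS EP flowed at 30 μL/min. Association and dissociation curves fit to 1:1 Langmuir model.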"}, "[3]": {"target": "T1, recombinant human TSLP-his", "assay": "capture ELISA: antibody captured on anti-human IgG Fc F(ab')2, biotin human TSLP-his, SA-HRP", "procedure": "Briefly, 96-well micro plates were coated with 100 μL 2 μg/mL AffiniPure F(ab′)₂ Fragment Goat Anti-Human IgG, Fey fragment specific (Jackson Immuno Research, Cat #109-006-008) in PBS and incubated overnight at 4° C. Plates were washed 4 times with wash buffer (PBS+0.05% Tween-20, PBST) and then blocked with 200 μL/well blocking buffer (5% w/v non-fatty milk in PBST) for 2 hours at 37° C. […] After the final wash, the plates were incubated with 100 μL/well TMB (Innoreagents). The reaction was stopped 15 minutes later at room temperature with 50 μL/well 1M H₂SO₄, and the absorbance of each well was read on a microplate reader using dual wavelength mode with 450 nm for TMB and 630 nm as the reference wavelength. The OD (450-630) values were plotted against antibody concentration. Data was analyzed using Graphpad Prism and EC₅₀ values were reported."}, "[4]": {"target": "T2, recombinant human IL4Rα-his", "assay": "dual-binding ELISA: coated human IL4Rα-his, antibody titrated, detection with biotin human TSLP-his and SA-HRP; signal needs both antigens bound"}}}
{"binder": "B1", "values": [{"measurement": "Kd", "setting": "[1]", "result": 0.00342, "unit": "nM"}, {"measurement": "koff", "setting": "[1]", "result": "1.71e-06", "unit": "s⁻¹"}, {"measurement": "kon", "setting": "[1]", "result": 499000, "unit": "M⁻¹ s⁻¹"}, {"measurement": "Kd", "setting": "[2]", "result": 2.43, "unit": "nM"}, {"measurement": "koff", "setting": "[2]", "result": 0.000453, "unit": "s⁻¹"}, {"measurement": "kon", "setting": "[2]", "result": 186000, "unit": "M⁻¹ s⁻¹"}, {"measurement": "EC50", "setting": "[3]", "result": 0.103, "unit": "nM"}, {"measurement": "EC50", "setting": "[4]", "result": 0.0652, "unit": "nM"}]}
